Assay results: patent publication US10087231B2, “Substitution mutant receptors and their use in an ecdysone receptor-based inducible gene expression system” (Intrexon Corporation, priority 2001, dated 2018)
Substitutions are numbered along the chain they refer to. Numbers in names are those of the source. Entries after “also recorded” stand apart in the source; their conditions may differ.

Tests used:
[1] = system: GAL4/CfEcR-DEF and pFRLuc in NIH3T3 cells; assay type: cell-based, mouse; details: for non-steroid ligand sensitivity: 0.04-25 μM GS™-E, compared to wild-type HsRXRβ-EF
Experimental: (§1) The resulting PCR nucleic acid products encoding the mutant RXR ligand binding domains were then each fused to a VP16 transactivation domain as described in Examples 1.3 and 1.6 above. The VP16/mutant RXR receptor constructs were tested for activity by transfecting them into NIH3T3 cells along with GAL4/CfEcR-DEF and pFRLuc in the presence of non-steroid ligand.
(§2) DNAs corresponding to the various switch constructs outlined in Example 1.1-1.6 were transfected into mouse NIH3T3 cells (ATCC) as follows. Standard methods for culture and maintenance of the cells were followed. […] Superfect™ (Qiagen Inc.) was used as the transfection reagent. For 12-well plates, 4 μl of Superfect™ was mixed with 100 μl of growth medium. One μg of reporter construct and 0.25 μg of each receptor construct of the receptor pair to be analyzed were added to the transfection mix. […] The cells were harvested and reporter activity was assayed.
Cells were harvested 40 hours after adding ligand. […] Twenty μl of lysate were assayed. […]
The cells were harvested and reporter activity was assayed as described above.
As discussed above, a CfEcR-based gene regulation system is ligand dependent when RXRs are used as the heterodimeric partner and ligand independent when USPs are used as the heterodimeric partner. However, reporter gene expression is induced at very high levels when CfUSP is used as the heterodimeric partner. To improve RXR as heterodimeric partner, Applicants have aligned the polypeptide sequences of several USP and RXR ligand binding domains (domains EF) and identified amino acid residues that are different between these two nuclear receptor family members. In particular, Applicants identified residues that are conserved in all USPs but are different in RXRs and mutated these residues in HsRXRβ. […] The cells were harvested and reporter activity was assayed as described above.

[2] = system: GAL4/CfEcR-DEF and pFRLuc in NIH3T3 cells; assay: Reporter gene transactivation of VP16/mutant MmRXRα-EF with GAL4/CfEcR-DEF and pFRLuc, GS™-E ligand; assay type: cell-based, mouse; details: for induction levels / sensitivity to non-steroid ligand: NIH3T3 cells, 0.2, 1 and 10 μM GS™-E; for background levels in the absence of ligand: NIH3T3 cells, VP16/MmRXRα-EF mutant + GAL4/CfEcR-DEF + pFRLuc, no ligand (DMSO)
Experimental: as §1, §2
Cells were harvested 40 hours after adding ligand. […] Twenty μl of lysate were assayed.
DNAs corresponding to the various switch constructs outlined in Example 1, specifically switches 1.1-1.4, were transfected into mouse NIH3T3 cells (ATCC) as follows. […] Two μl of Superfect™ was mixed with 100 μl of growth medium and 50 ng of GAL4/CfEcR-DEF cassette, 50 ng of: VP16/LmUSP-EF, VP16/wild-typeMmRXRα-EF, VP16/MmRXRα-LmUSPchimera-EF, or VP16/mutantMmRXRα-EF, and 200 ng of pFRLuc were added to the transfection mix. […] The cells were harvested and reporter activity was assayed as described above.

B1: D450E/A451V/K452R: HsRXRβ ligand binding domain triple substitution mutant (protein)
chain: MGPKKKRKVAPPTDVSLGDELHLDGEDVAMAHADALDDFDLDMLGDGDSPGPGFTPHDSAPYGALDMADFEFEQMFTDALGIDEYGGEFPAPEEMPVDRILEAELAVEQKSDQGVEGPGGTGGSGSSPNDPVTNICQAADKQLFTLVEWAKRIPHFSSLPLDDQVILLRAGWNELLIASFSHRSIDVRDGILLATGLHVHRNSAHSAGVGAIFDRVLTELVSKMRDMRMDKTELGCLRAIILFNPEVRGLSNPSEVEVLREKVYASLETYCKQKYPEQQGRFAKLLLRLPALRSIGLKCLEHLFFFKLIGDTPIDTFLMEMLEAPHQLA
[1]
  non-steroid ligand sensitivity: improved non-steroid ligand sensitivity

B2: E481D/Q482E/Q483P: HsRXRβ ligand binding domain triple substitution mutant (protein)
chain: B1 chain with E246D, V247A, R248K, E277D, Q278E, Q279P
[1]
  non-steroid ligand sensitivity: improved non-steroid ligand sensitivity

B3: C475T/K476R/Q477T/K478T/Y479H: HsRXRβ ligand binding domain quintuple substitution mutant (protein)
chain: B1 chain with E246D, V247A, R248K, C271T, K272R, Q273T, K274T, Y275H
[1]
  non-steroid ligand sensitivity: improved non-steroid ligand sensitivity

B4: S455K/N456S/P457A/S458Q: HsRXRβ ligand binding domain quadruple substitution mutant (protein)
chain: B1 chain with E246D, V247A, R248K, S251K, N252S, P253A, S254Q
[1]
  non-steroid ligand sensitivity: improved non-steroid ligand sensitivity

B5: V462L: HsRXRβ ligand binding domain substitution mutant (protein, listed as Homo sapiens)
chain: MSWAARPPFLPQRHAAGQCGPVGVRKEMHCGVASRWRRRRPWLDPAAAAAAAVAGGEQQTPEPEPGEAGRDGMGDSGRDSRSPDSSSPNPLPQGVPPPSPPGPPLPPSTAPSLGGSGAPPPPPMPPPPLGSPFPVISSSMGSPGLPPPAPPGFSGPVSSPQINSTVSLPGGGSGPPEDVKPPVLGVRGLHCPPPPGGPGAGKRLCAICGDRSSGKHYGVYSCEGCKGFFKRTIRKDLTYSCRDNKDCTVDKRQRNRCQYCRYQKCLATGMKREAVQEERQRGKDKDGDGEGAGGAPEEMPVDRILEAELAVEQKSDQGVEGPGGTGGSGSSPNDPVTNICQAADKQLFTLVEWAKRIPHFSSLPLDDQVILLRAGWNELLIASFSHRSIDVRDGILLATGLHVHRNSAHSAGVGAIFDRVLTELVSKMRDMRMDKTELGCLRAIILFNPDAKGLSNPSEVELLREKVYASLETYCKQKYPEQQGRFAKLLLRLPALRSIGLKCLEHLFFFKLIGDTPIDTFLMEMLEAPHQLA
modifications: ligand binding domain only
[1]
  non-steroid ligand sensitivity: improved non-steroid ligand sensitivity

B6: G321L/P322R/G323V: HsRXRβ ligand binding domain triple substitution mutant (SEQ ID NO: 2) (protein, listed as Homo sapiens)
chain: B5 chain with G321L, P322R, G323V, L462V
[1]
  non-steroid ligand sensitivity: improved ligand sensitivity

B7: T473E: HsRXRβ ligand binding domain substitution mutant (protein, listed as Homo sapiens)
chain: B5 chain with L462V, T473E
modifications: ligand binding domain only
[1]
  non-steroid ligand sensitivity: improved non-steroid ligand sensitivity

B8: M431L: HsRXRβ ligand binding domain substitution mutant (SEQ ID NO: 2) (protein, listed as Homo sapiens)
chain: B5 chain with M431L, L462V
[1]; 0.04-25 μM GS™-E (FIG. 4)
  transactivation activity: essentially eliminated transactivation activity

B9: G500S: HsRXRβ ligand binding domain substitution mutant, glycine to serine at 500 (protein, listed as Homo sapiens)
chain: B5 chain with L462V, G500S
modifications: ligand binding domain only
[1]
  non-steroid ligand sensitivity: improved ligand sensitivity

B10: E472D: HsRXRβ ligand binding domain substitution mutant (protein, listed as Homo sapiens)
chain: B5 chain with L462V, E472D
modifications: ligand binding domain only
[1]
  non-steroid ligand sensitivity: improved ligand sensitivity

B11: E401D: MmRXRα ligand binding domain substitution mutant, glutamic acid to aspartic acid at 401 of SEQ ID NO: 1, fused to VP16 (protein)
chain: MGPKKKRKVAPPTDVSLGDELHLDGEDVAMAHADALDDFDLDMLGDGDSPGPGFTPHDSAPYGALDMADFEFEQMFTDALGIDEYGGEFPANEDMPVEKILEAELAVEPKTETYVEANMGLNPSSPNDPVTNICQAADKQLFTLVEWAKRIPHFSELPLDDQVILLRAGWNELLIASFSHRSIAVKDGILLATGLHVHRNSAHSAGVGAIFDRVLTELVSKMRDMQMDKTELGCLRAIVLFNPDSKGLSNPAEVEALREKVYASLDAYCKHKYPEQPGRFAKLLLRLPALRSIGLKCLEHLFFFKLIGDTPIDTFLMEMLEAPHQAT
[2]
  induction levels: higher induction levels
  sensitivity to non-steroid ligand: increased sensitivity to a non-steroid ligand
  background levels in the absence of ligand: higher background

B12: E401D/G429S: double substitution mutant MmRXRα-EF with E401D and G429S; three independent clones analyzed (protein)
chain: B11 chain with G294S
[2]
  induction levels: increased induction levels
  sensitivity to non-steroid ligand: increased induction levels and ligand sensitivity
  background levels in the absence of ligand: low background levels
[2]; NIH3T3 cells, 0.2, 1 and 10 μM GS™-E (FIG. 2)
  performance compared with chimeric vertebrate RXR/invertebrate RXR: work as well as the chimeric RXR

B13: G429S: MmRXRα ligand binding domain substitution mutant, glycine to serine at 429 of SEQ ID NO: 1, fused to VP16 (protein)
chain: B11 chain with D266E, G294S
[2]
  sensitivity to non-steroid ligand: increased sensitivity to a non-steroid ligand; also recorded: increased sensitivity to ligand
  background levels in the absence of ligand: less background
